For data set [1] the following is noted: additive for sc or im administration of proteins; WO 86/06962 and EP-A-0,292,908; cited from earlier work.
A short description of data set [2]: Bioavailability and/or tolerability of polypeptides administered sc or im with added amino acid (general statements). Format: in vivo, rats or rabbits. Conditions: amino acid additives, sc or im administration. The protocol: (§1) Each ml of the thawed solutions from Example 1 was administered sc and im (femoral biceps) in animals (rats or rabbits). In the case of im administration, the total volume of 1 ml was divided between four types of injection.
(§2) After 0, 15, 30, 60, 120, 180, 240 and 340 minutes (r-t-PA mutant) or 0, 30, 60, 120, 180, 240, 300, 360, 420 and 450 minutes (r-t-PA, hirudin, urokinase AT III, F XIII, von Willebrand, EPO, PP4), blood samples (+ citrate) were taken. The blood samples were then immediately centrifuged and the resulting citrate plasma was frozen at -20° C. until the determination. The plasma concentration of the test substance was measured as follows:
(§3) The area under the curve (AUC) was then calculated. This value is an expression of the bioavailability and makes possible comparison between the different presentation forms.

A short description of data set [3]: Hemorrhages at the administration site, hirudin. Type of data set: in vivo, rat. The protocol: as §1
(§4) Number of animals with hemorrhages

Data set [4] in a line: Hemorrhages at the administration site, urokinase. Type of data set: in vivo, rabbit. Conditions: for Number of animals with hemorrhages: 0.05 M tris, 5 mg/kg. The protocol: as §1, §4
Data set [5] in a line: Bioavailability of t-PA in the rat (plasma concentration by ELISA, AUC). Type of data set: in vivo. Conditions: n=2, 3.3/8.2 mg/kg. The protocol: Each ml of the thawed solutions from Example 1 was administered sc and im (femoral biceps) in animals (rats or rabbits). In the case of im administration, the total volume of 1 ml was divided between four types of injection. […]
as §2
r-t-PA ELISA (Biopool, Sweden)
as §3
I. Bioavailability of t-PA in the rat
In general terms: In an ELISA, binding on a coated surface is turned into a signal by an enzyme label.

A short description of data set [6]: Death of animals after sc/im administration. Type of data set: in vivo. Conditions: buffer 5 (0.05 M tris, 0.1 M NaCl pH 7.5, 0.1% Tween 80, 50 mg/ml hydroxylamine), rat, 3.3/8.2 mg/kg. The protocol:
as §1

Setting [7] is: presentation form according to the invention versus customary presentation forms.

As to `NO` [hydroxylamine], the tolerability result in data set [1] was “limited tolerability”.
As for `CN` [methylamine], in data set [1], the tolerability entry is reported as “limited tolerability”.
Take “EPO: r-erythropoietin (EPO); 1 mg of EPO corresponds to 80,000 U of EPO antigen”: the “influence on the bioavailability and/or improvement in the tolerability” value (shortened to “influence”) in data set [2] is on record as “favorable influence”.
As for “F XIII: F XIII (Fibrogammin) obtained from Behringwerke”, the “influence” value in data set [2] is “favorable influence”.
Hirudin: the “Number of animals with hemorrhages” value in data set [3] (0.05 M tris, 0.1 M NaCl, im, 10 mg/kg) was 3/3; in data set [3] (0.05 M tris, 0.1 M NaCl, sc, 10 mg/kg), 2/3; in data set [3] (0.2 M arginine, 0.2 M lysine pH 7.5, im, 10 mg/kg) it was 0/3; in data set [3] (0.2 M arginine, 0.2 M lysine pH 7.5, sc, 10 mg/kg) it was 0/3. Further, the “animal died as a result of the hemorrhages” value in data set [3] (0.05 M tris, 0.1 M NaCl, im, 10 mg/kg, of 3 animals) turned out to be 1 animal. In addition, the “hemorrhages at the administration site on sc and im administration” value in data set [3] (setting [7]) is “distinctly less”. For the same compound, in data set [2], the “influence” value is listed as “favorable influence”.
In the case of “PP4: PP4 (placenta protein 4) prepared by the process of EP 0,123,307”, the “influence” value in data set [2] is “favorable influence”.
With Urokinase, the “Number of animals with hemorrhages” value in data set [4] (0.1 M NaCl pH 7.5, im) was 2/3; in data set [4] (0.1 M NaCl pH 7.5, sc), 2/3. Further, in data set [4] (setting [7]), the “hemorrhages at the administration site on sc and im administration” value is listed as “distinctly less”. Also, the “influence” value in data set [2] is reported as “favorable influence”.
For the compound antithrombin III, the “influence” value in data set [2] is listed as “favorable influence”.
As for “t-PA: r-t-PA (Actilyse) purchased from Boehringer Ingelheim; tissue plasminogen activator”, the “AUC + Variation (%)” value in data set [5] (buffer 1 (0.05 M tris, 0.1 M NaCl), im) is reported as 358 ± 10%; in data set [5] (buffer 1 (0.05 M tris, 0.1 M NaCl), sc) it was 36 ± 13%; in data set [5] (buffer 2 (idem buffer 1, pH 4.5), im), 386 ± 2%; in data set [5] (buffer 2 (idem buffer 1, pH 4.5), sc), 53 ± 14%; in data set [5] (buffer 3 (0.2 M arginine, 0.2 M lysine pH 7.5), im) it was 756 ± 2%; in data set [5] (buffer 3 (0.2 M arginine, 0.2 M lysine pH 7.5), sc), 423 ± 3%. In addition, the “AUC + Variation (%)” value in data set [5] (buffer 4 (0.2 M arginine, 0.2 M lysine pH 4.5), im) was found to be 669 ± 17%; in data set [5] (buffer 4 (0.2 M arginine, 0.2 M lysine pH 4.5), sc), 382 ± 11%; in data set [5] (buffer 7 (0.05 M tris, 0.1 M NaCl pH 7.5, 0.1% Tween 80, 3% dimethyl sulfoxide), im), 184 ± 18%; in data set [5] (buffer 7 (0.05 M tris, 0.1 M NaCl pH 7.5, 0.1% Tween 80, 3% dimethyl sulfoxide), sc), 87 ± 12%; in data set [5] (buffer 8 (0.2 M arginine pH 7.5), im) it was 600 ± 4%; in data set [5] (buffer 8 (0.2 M arginine pH 7.5), sc), 320 ± 2%. For the same compound, the “AUC + Variation (%)” value was 610 ± 10% in data set [5] (buffer 9 (0.2 M lysine pH 7.5), im) and 290 ± 11% in data set [5] (buffer 9 (0.2 M lysine pH 7.5), sc). The animals died result in data set [6] (im) and in data set [6] (sc) was “all animals died” each time. Besides, the “influence” value in data set [2] is on record as “favorable influence”.
As to “von Willebrand factor: prepared by the process of DE 3,904,354 (1 mg of vW corresponds to 100 U of vW antigen)”, the “influence” value in data set [2] is given as “favorable influence”.

The values above are taken from patent US5691312A, “Pharmaceutical for subcutaneous or intramuscular administration containing polypeptides” (Behringwerke Aktiengesellschaft, priority 1989, dated 1997).
